The source of these data is patent publication US20140140998.

Data set [1] relates to TβRI intracellular domain fragment (TβRI ICD), about 34 kDa.
Data set [2] deals with TM-V129A/I130A TβRI mutant (HA-tagged, in HA-caTβRI).

Sequence of TβRI intracellular domain fragment (TβRI ICD), about 34 kDa (chain, as listed by the source): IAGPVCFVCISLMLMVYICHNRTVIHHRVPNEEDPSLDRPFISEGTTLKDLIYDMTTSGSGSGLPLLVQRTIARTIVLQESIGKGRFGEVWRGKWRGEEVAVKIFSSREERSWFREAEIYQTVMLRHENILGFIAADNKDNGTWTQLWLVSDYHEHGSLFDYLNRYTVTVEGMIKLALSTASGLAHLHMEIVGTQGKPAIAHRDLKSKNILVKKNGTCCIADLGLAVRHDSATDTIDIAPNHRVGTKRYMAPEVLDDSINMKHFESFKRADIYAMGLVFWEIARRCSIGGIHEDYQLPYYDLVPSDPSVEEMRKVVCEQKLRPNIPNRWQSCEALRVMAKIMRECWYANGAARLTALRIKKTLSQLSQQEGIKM

As to p300, endogenous, the “acetylation of the TβRI ICD (immunoblot with anti-acetyl-lysine)” value in data set [1] is on record as “acetylation of the TβRI ICD was verified using an antibody specific for acetyl-lysine”. Regarding Presenilin 1 (PS1), endogenous, in data set [2], the “production of TβRI ICD (immunoblot)” value is “Production of TβRI ICD was observed only in the TGF-treated cells transfected with caTβRI construct”.
